The source of these data is the supplement of paper PMC11246515.

The nature of this data set: total protein half-life in vivo (active degradation + dilution); higher = more stable protein.
The mark [1] stands for this setting: E. coli NCM3722 delta-clpP, growth: N-lim chemostat, doubling time 6 h.
Setting [2] is: E. coli NCM3722 delta-hslV, growth: N-lim chemostat, doubling time 6 h.
[3] abbreviates: E. coli NCM3722 delta-lon, growth: N-lim chemostat, doubling time 6 h.
Setting [4] is: E. coli NCM3722 delta-smpB, growth: N-lim chemostat, doubling time 6 h.
The mark [5] stands for this setting: wild type E. coli NCM3722, growth: C-lim chemostat, doubling time 3 h.
The mark [6] stands for this setting: wild type E. coli NCM3722, growth: C-lim chemostat, doubling time 6 h.
Where [7] appears, read: wild type E. coli NCM3722, growth: N-lim chemostat, doubling time 6 h.
Where [8] appears, read: wild type E. coli NCM3722, growth: N-lim chemostat, doubling time 12 h.
Where [9] appears, read: wild type E. coli NCM3722, growth: P-lim chemostat, doubling time 6 h.
Setting [10] is: wild type E. coli NCM3722, growth: P-lim chemostat, doubling time 12 h.
The mark [11] stands for this setting: E. coli NCM3722 delta-clpP delta-lon delta-hslV, growth: N-lim chemostat, doubling time 6 h.
Where [12] appears, read: wild type E. coli NCM3722, growth: C-lim chemostat, doubling time 12 h.

± gives the standard deviation of the averaged measurements. Bounds are passed on as bounds.

As for “MAIALVTGGSRGIGRATALLLAQEGYTVAVNYQQNLHAAQEVMNLITQAGGKAFVLQADISDENQVVAMFTAIDQHDEPLAALVNNAGILFTQCTVENLTAERINRVLSTNVTGYFLCCREAVKRMALKNGGSGGAIVNVSSVASRLGSPGEYVDYAASKGAIDTLTTGLSLEVAAQGIRVNCVRPGFIYTEMHASGGEPGRVDRVKSNIPMQRGGQAEEVAQAIVWLLSDKASYVTGSFIDLAGGK”, the “total protein half-life in vivo” value is 5.48 ± 0.058 h under setting [1]; 5.67 h under setting [2]; 5.69 ± 0.45 h under setting [3]; 4.82 h under setting [4]; 3.03 ± 0.14 h under setting [5]; 5.93 h under setting [6]. The “total protein half-life in vivo” value amounted to 4.66 ± 0.41 h under setting [7], 8.32 ± 0.23 h under setting [8], 6.41 ± 0.74 h under setting [9] and 11.2 ± 1.9 h under setting [10].

With “METRREERIGQLLQELKRSDKLHLKDAAALLGVSEMTIRRDLNNHSAPVVLLGGYIVLEPRSASHYLLSDQKSRLVEEKRRAAKLAATLVEPDQTLFFDCGTTTPWIIEAIDNEIPFTAVCYSLNTFLALKEKPHCRAFLCGGEFHASNAIFKPIDFQQTLNNFCPDIAFYSAAGVHVSKGATCFNLEELPVKHWAMSMAQKHVLVVDHSKFGKVRPARMGDLKRFDIVVSDCCPEDEYVKYAQTQRIKLMY [P0ACK5]”, the “total protein half-life in vivo” value under setting [11] came to 6.81 ± 0.62 h; the “total protein half-life in vivo” value under setting [1] came to 6.08 ± 0.73 h; the “total protein half-life in vivo” value under setting [2] is 6.59 ± 0.9 h; the “total protein half-life in vivo” value under setting [3] stood at 6.9 ± 1.5 h; the “total protein half-life in vivo” value under setting [4] was 5.02 ± 0.12 h; the “total protein half-life in vivo” value under setting [5] is 2.74 h. Further, the “total protein half-life in vivo” value was 6.23 ± 0.15 h under setting [6]; 9.99 ± 0.58 h under setting [12]; 5.81 ± 0.078 h under setting [7]; 10.57 ± 0.023 h under setting [8]; 5.99 ± 0.49 h under setting [9].

For “MLINIGRLLMLCVWGFLILNLVHPFPRPLNIFVNVALIFTVLMHGMQLALLKSTLPKDGPQMTTAEKVRIFLFGVFELLAWQKKFKVKK”, the “total protein half-life in vivo” value under setting [11] came to 6.84 h; the “total protein half-life in vivo” value under setting [2] turned out to be 7.72 h; the “total protein half-life in vivo” value under setting [3] stood at 6.85 h; the “total protein half-life in vivo” value under setting [4] came to 6.18 h; the “total protein half-life in vivo” value under setting [5] was 3.25 h; the “total protein half-life in vivo” value under setting [7] turned out to be 4.21 h. Also, the “total protein half-life in vivo” value under setting [9] is 6.22 h and the “total protein half-life in vivo” value under setting [10] was found to be 12.6 h.

Consider “MSIQNEMPGYNEMNQYLNQQGTGLTPAEMHGLISGMICGGNDDSSWLPLLHDLTNEGMAFGHELAQALRKMHSATSDALQDDGFLFQLYLPDGDDVSVFDRADALAGWVNHFLLGLGVTQPKLDKVTGETGEAIDDLRNIAQLGYDEDEDQEELEMSLEEIIEYVRVAALLCHDTFTHPQPTAPEVQKPTLH [P0A8C4]”, for which the “total protein half-life in vivo” value under setting [11] is greater than 8 h; the “total protein half-life in vivo” value under setting [1] is 4.56 ± 0.28 h; the “total protein half-life in vivo” value under setting [2] was 3.63 ± 0.19 h; the “total protein half-life in vivo” value under setting [3] worked out at 3.96 ± 0.8 h; the “total protein half-life in vivo” value under setting [4] is 3.76 ± 0.7 h; the “total protein half-life in vivo” value under setting [5] turned out to be 2.648 ± 0.026 h. In addition, the “total protein half-life in vivo” value is, setting by setting: under setting [6], 5.18 ± 0.36 h; under setting [12], 8.97 ± 0.18 h; under setting [7], 3.86 ± 0.19 h; under setting [8], 5.64 ± 1 h; under setting [9], 5.02 ± 1.2 h; under setting [10], 9.3 h.

Take “MTPVKVWQERVEIPTYETGPQDIHPMFLENRVYQGSSGAVYPYGVTDTLSEQKTLKSWQAVWLENDYIKVMILPELGGRVHRAWDKVKQRDFVYHNEVIKPALVGLLGPWISGGIEFNWPQHHRPTTFMPVDFTLEAHEDGAQTVWVGETEPMHGLQVMTGFTLRPDRAALEIASRVYNGNATPRHFLWWANPAVKGGEGHQSVFPPDVTAVFDHGKRAVSAFPIATGTYYKVDYSAGVDISRYKNVPVPTSYMAEKSQYDFVGAWCHDEDGGLLHVANHHIAPGKKQWSWGHSEFGQAWDKSLTDNNGPYIELMTGIFADNQPDFTWLDAYEEKRFEQYFLPYHSLGMVQNASRDAVIKLQRSKRGIEWGLYAISPLNGYRLAIREIGKCNALLDDAVALMPATAIQGVLHGINPERLTIELSDADGNIVLSYQEHQPQALPLPDVAKAPLAAQDITSTDEAWFIGQHLEQYHHASRSPFDYYLRGVALDPLDYRCNLALAMLEYNRADFPQAVAYATQALKRAHALNKNPQCGQASLIRASAYERQGQYQQAEEDFWRAVWSGNSKAGGYYGLARLAARNGNFDAGLDFCQQSLRACPTNQEVLCLHNLLLVLSGRQDNARVQREKLLRDYPLNATLWWLNWFDGRSESALAQWRGLCQGRDVNALMTAGQLINWGMPTLAAEMLNALDCQRTLPLYLQASLLPKAERGELVAKAIDVFPQFVRFPNTLEEVAALESIEECWFARHLLACFYYNKRSYNKAIAFWQRCVEMSPEFADGWRGLAIHAWNKQHDYELAARYLDNAYQLAPQDARLLFERDLLDKLSGATPEKRLARLENNLEIALKRDDMTAELLNLWHLTGQADKAADILATRKFHPWEGGEGKVTSQFILNQLLRAWQHLDARQPQQACELLHAALHYPENLSEGRLPGQTDNDIWFWQAICANAQGDETEATRCLRLAATGDRTINIHSYYNDQPVDYLFWQGMALRLLGEQQTAQQLFSEMKQWAQEMAKTSIEADFFAVSQPDLLSLYGDLQQQHKEKCLMVAMLASAGLGEVAQYESARAELTAINPAWPKAALFTTVMPFIFNRVH”: the “total protein half-life in vivo” value amounted to 3.06 ± 0.34 h under setting [5], 4.96 ± 0.015 h under setting [6], 8.56 ± 1.8 h under setting [12] and 7.32 h under setting [10].

Consider “MNIVVLISGNGSNLQAIIDACKTNKIKGTVRAVFSNKADAFGLERARQAGIATHTLIASAFDSREAYDRELIHEIDMYAPDVVVLAGFMRILSPAFVSHYAGRLLNIHPSLLPKYPGLHTHRQALENGDEEHGTSVHFVTDELDGGPVILQAKVPVFAGDSEDDITARVQTQEHAIYPLVISWFADGRLKMHENAAWLDGQRLPPQGYAADE”, for which the “total protein half-life in vivo” value under setting [11] came to 4.883 ± 0.024 h; the “total protein half-life in vivo” value under setting [1] turned out to be 4.97 ± 0.32 h; the “total protein half-life in vivo” value under setting [2] worked out at 5.15 ± 1.4 h; the “total protein half-life in vivo” value under setting [3] came to 4.68 ± 0.53 h; the “total protein half-life in vivo” value under setting [4] is 4.39 ± 0.18 h; the “total protein half-life in vivo” value under setting [5] is 2.94 ± 0.6 h. Besides, the “total protein half-life in vivo” value came out at 5.63 ± 2.2 h under setting [6], 4.49 ± 0.41 h under setting [7], 9.87 ± 3.2 h under setting [8] and 5.58 ± 0.33 h under setting [9].

As to “MRALLPYLALYKRHKWMLSLGIVLAIVTLLASIGLLTLSGWFLSASAVAGVAGLYSFNYMLPAAGVRGAAITRTAGRYFERLVSHDATFRVLQHLRIYTFSKLLPLSPAGLARYRQGELLNRVVADVDTLDHLYLRVISPLVGAFVVIMVVTIGLSFLDFTLAFTLGGIMLLTLFLMPPLFYRAGKSTGQNLTHLRGQYRQQLTAWLQGQAELTIFGASDRYRTQLENTEIQWLEAQRRQSELTALSQAIMLLIGALAVILMLWMASGGVGGNAQPGALIALFVFCALAAFEALAPVTGAFQHLGQVIASAVRISDLTDQKPEVTFPDTQTRVADRVSLTLRDVQFTYPEQSQQALKGISLQVNAGEHIAILGRTGCGKSTLLQQLTRAWDPQQGEILLNDSPIASLNEAALRQTISVVPQRVHLFSATLRDNLLLASPGSSDEALSEILRRVGLEKLLEDAGLNSWLGEGGRQLSGGELRRLAIARALLHDAPLVLLDEPTEGLDATTESQILELLAEMMREKTVLMVTHRLRGLSRFQQIIVMDNGQIIEQGTHAELLARQGRYYQFKQGL”, the “total protein half-life in vivo” value under setting [11] was greater than 8 h; the “total protein half-life in vivo” value under setting [1] amounted to 6.58 ± 0.21 h; the “total protein half-life in vivo” value under setting [2] is 6.08 ± 0.081 h; the “total protein half-life in vivo” value under setting [3] is 6.01 ± 0.34 h; the “total protein half-life in vivo” value under setting [4] was 5.928 ± 0.023 h; the “total protein half-life in vivo” value under setting [5] is 3.08 ± 0.092 h. Also, the “total protein half-life in vivo” value under setting [6] turned out to be 5.92 ± 0.12 h; the “total protein half-life in vivo” value under setting [7] was found to be 5.99 ± 0.31 h; the “total protein half-life in vivo” value under setting [8] was determined as 11.7 ± 0.28 h; the “total protein half-life in vivo” value under setting [9] worked out at 6.274 ± 0.058 h; the “total protein half-life in vivo” value under setting [10] turned out to be 12.3 ± 1.1 h.

Consider “MIVRPQQHWLRRIFVWHGSVLSKISSRLLLNFLFSIAVIFMLPWYTHLGIKFTLAPFSILGVAIAIFLGFRNNAGYARYVEARKLWGQLMIASRSLLREVKTTLPDSASVREFARLQIAFAHCLRMTLRKQPQAEVLAHYLKTEDLQRVLASNSPANRILLIMGEWLAVQRRNGQLSDILFISLNDRLNDISAVLAGCERIAYTPIPFAYTLILHRTVYLFCIMLPFALVVDLHYMTPFISVLISYTFISLDCLAEELEDPFGTENNDLPLDAICNAIEIDLLQMNDEAEIPAKILPDRHYQLT”, for which the “total protein half-life in vivo” value under setting [11] amounted to 6.05 h; the “total protein half-life in vivo” value under setting [1] is 5.43 h; the “total protein half-life in vivo” value under setting [2] was determined as 5.52 h; the “total protein half-life in vivo” value under setting [7] was determined as 3.6 h; the “total protein half-life in vivo” value under setting [8] worked out at 8.65 h; the “total protein half-life in vivo” value under setting [9] was 5.86 ± 0.6 h. The “total protein half-life in vivo” value under setting [10] was 11.5 ± 0.23 h.

“MRIHSPYPASWALAQRIGYLYSEGEIIYLADTPFERLLDIQRQVGQCQTMTSLSQADFEARLEAVFHQNTGESQQIAQDIDQSVDLLSLSEEMPANEDLLNEDSAAPVIRLINAILSEAIKETASDIHIETYEKTMSIRFRIDGVLRTILQPNKKLAALLISRIKVMARLDIAEKRIPQDGRISLRIGRRNIDVRVSTLPSIYGERAVLRLLDKNSLQLSLNNLGMTAADKQDLENLIQLPHGIILVTGPTGSGKSTTLYAILSALNTPGRNILTVEDPVEYELEGIGQTQVNTRVDMSFARGLRAILRQDPDVVMVGEIRDTETAQIAVQASLTGHLVLSTLHTNSASGAVTRLRDMGVESFLLSSSLAGIIAQRLVRRLCPQCRQFTPVSPQQAQMFKYHQLAVTTIGTPVGCPHCHQSGYQGRMAIHEMMVVTPELRAAIHENVDEQALERLVRQQHKALIKNGLQKVISGDTSWDEVMRVASATLESEA”: the “total protein half-life in vivo” value under setting [11] is 6.61 h.

As for “MRKSVIAIIIIVLVVLYMSVFVVKEGERGITLRFGKVLRDDDNKPLVYEPGLHFKIPFIETVKMLDARIQTMDNQADRFVTKEKKDLIVDSYIKWRISDFSRYYLATGGGDISQAEVLLKRKFSDRLRSEIGRLDVKDIVTDSRGRLTLEVRDALNSGSAGTEDEVTTPAADNAIAEAAERVTAETKGKVPVINPNSMAALGIEVVDVRIKQINLPTEVSEAIYNRMRAEREAVARRHRSQGQEEAEKLRATADYEVTRTLAEAERQGRIMRGEGDAEAAKLFADAFSKDPDFYAFIRSLRAYENSFSGNQDVMVMSPDSDFFRYMKTPTSATR [P0ABC3]”, the “total protein half-life in vivo” value came to 6.51 ± 1.1 h under setting [11]; 6.07 ± 0.18 h under setting [1]; 6.357 ± 0.024 h under setting [2]; 6.347 ± 0.034 h under setting [3]; 5.72 ± 0.33 h under setting [4]; 3.09 ± 0.1 h under setting [5]. The “total protein half-life in vivo” value was 6.06 ± 0.14 h under setting [6]; 11.7 ± 0.84 h under setting [12]; 6.653 ± 0.049 h under setting [7]; 12.7 ± 0.77 h under setting [8]; 6 ± 0.65 h under setting [9]; 13.8 ± 0.97 h under setting [10].
